Consider two sequences from paper PMC9684507.

The target in the series is T1, glucocorticoid receptor (GR) ((MCF-7 breast cancer cells)) (UniProt P04150).
T1 sequence: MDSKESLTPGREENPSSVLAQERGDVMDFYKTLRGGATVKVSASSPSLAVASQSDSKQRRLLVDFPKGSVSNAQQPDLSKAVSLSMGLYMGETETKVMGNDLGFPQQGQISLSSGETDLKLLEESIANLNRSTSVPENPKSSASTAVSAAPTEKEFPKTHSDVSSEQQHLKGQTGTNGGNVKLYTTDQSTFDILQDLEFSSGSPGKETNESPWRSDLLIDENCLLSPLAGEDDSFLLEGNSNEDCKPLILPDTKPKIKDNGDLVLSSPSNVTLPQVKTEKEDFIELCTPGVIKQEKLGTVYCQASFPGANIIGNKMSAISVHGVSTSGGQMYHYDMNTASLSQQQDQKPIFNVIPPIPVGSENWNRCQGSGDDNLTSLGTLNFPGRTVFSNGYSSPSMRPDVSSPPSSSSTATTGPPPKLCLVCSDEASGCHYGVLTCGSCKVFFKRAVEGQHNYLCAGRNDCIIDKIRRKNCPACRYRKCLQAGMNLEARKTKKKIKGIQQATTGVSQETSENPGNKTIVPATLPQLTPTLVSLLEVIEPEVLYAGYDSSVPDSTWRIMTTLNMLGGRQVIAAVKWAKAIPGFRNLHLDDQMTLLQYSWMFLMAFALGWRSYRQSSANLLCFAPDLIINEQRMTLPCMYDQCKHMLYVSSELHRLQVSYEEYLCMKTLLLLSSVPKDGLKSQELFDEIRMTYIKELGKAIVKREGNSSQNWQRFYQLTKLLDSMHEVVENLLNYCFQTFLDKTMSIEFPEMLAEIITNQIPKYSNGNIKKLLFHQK
Nature of the series: EMSA supershift. As to conditions: LightShift Chemiluminescent EMSA Kit (Thermo), 6% polyacrylamide gel, antibody 1:250, additional 30 min, buffer, salt, pH and temperature not stated.

Bounds are passed on as bounds.

As to “TTCTGATCTTTGTTTTGCTTTTCTTGGCTTCTG (double strand) [rs28714259 G (major) probe]”, the binding signal (fraction of G-probe band intensity) (dexamethasone-treated MCF-7 nuclear extract, anti-GR antibody, reference) came out at 1.

Take “TTCTGATCTTTGTTTTACTTTTCTTGGCTTCTG (double strand) [rs28714259 A (risk) probe]”: the binding signal (scale: fraction of G-probe supershift band intensity) was < 0.4.
